Data taken from article PMC4460818.

Target: His-NDR1^3E (human) (UniProt Q15208)
Sequence (Q15208 other isoform, or with tags, fused parts or gaps): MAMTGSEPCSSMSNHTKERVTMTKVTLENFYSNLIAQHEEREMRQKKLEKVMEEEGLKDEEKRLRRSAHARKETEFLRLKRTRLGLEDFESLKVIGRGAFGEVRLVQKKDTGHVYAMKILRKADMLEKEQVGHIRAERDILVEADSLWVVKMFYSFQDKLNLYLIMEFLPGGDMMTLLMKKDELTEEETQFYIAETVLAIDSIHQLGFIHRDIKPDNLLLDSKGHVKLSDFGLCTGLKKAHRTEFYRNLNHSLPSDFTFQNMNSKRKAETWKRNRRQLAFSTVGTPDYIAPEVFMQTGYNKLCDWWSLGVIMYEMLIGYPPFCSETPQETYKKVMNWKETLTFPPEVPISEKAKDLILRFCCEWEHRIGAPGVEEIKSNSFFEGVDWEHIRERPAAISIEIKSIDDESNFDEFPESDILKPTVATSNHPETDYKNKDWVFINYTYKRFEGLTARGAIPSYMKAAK

- Km toward the 10-mer substrate peptide SP in a fluorimetric kinase assay, relative to wild type NDR1: 1.7 fold
B1: 10-mer NDR1 substrate peptide (peptide)
peptide: KKRNRRLSVA
